Values of other authors as cited in paper PMC5757840.

Molecular target: SNARE complex (Rattus norvegicus) (UniProt P32851)
UniProt P32851, sequence (P32851 whole entry, chain 1 of 3): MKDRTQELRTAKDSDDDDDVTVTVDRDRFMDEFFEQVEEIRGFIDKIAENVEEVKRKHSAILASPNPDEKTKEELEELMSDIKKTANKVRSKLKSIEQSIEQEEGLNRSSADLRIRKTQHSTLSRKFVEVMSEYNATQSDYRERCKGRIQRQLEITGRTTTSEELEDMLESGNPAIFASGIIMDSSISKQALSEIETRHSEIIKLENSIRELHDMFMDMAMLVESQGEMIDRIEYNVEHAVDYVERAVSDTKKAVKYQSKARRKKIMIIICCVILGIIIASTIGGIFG
UniProt P32851, sequence (B2RAU4 whole entry, chain 2 of 3, further chain): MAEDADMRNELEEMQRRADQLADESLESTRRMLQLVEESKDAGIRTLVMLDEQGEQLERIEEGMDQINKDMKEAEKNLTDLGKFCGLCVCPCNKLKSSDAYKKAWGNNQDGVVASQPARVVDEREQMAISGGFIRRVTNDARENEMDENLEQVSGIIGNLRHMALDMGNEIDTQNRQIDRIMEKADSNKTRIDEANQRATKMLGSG
UniProt P32851, sequence (P63044 2-116, chain 3 of 3, further chain): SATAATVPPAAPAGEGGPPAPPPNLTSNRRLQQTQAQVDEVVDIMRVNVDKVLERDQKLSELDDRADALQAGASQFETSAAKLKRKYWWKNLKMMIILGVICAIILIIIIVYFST

Kd: 900 nM
Substance: Syt1 (from UniProt P21707)
